T1: Mcm5, subunit of the purified CMG (yeast (strains based on W303), UniProt P29496 1-775)
T1 construct: Mcm5, subunit of yeast CMG; The Mcm5 chain of m4; source: yeast overexpression strain yJCZ3, purified as part of CMG
T1 sequence: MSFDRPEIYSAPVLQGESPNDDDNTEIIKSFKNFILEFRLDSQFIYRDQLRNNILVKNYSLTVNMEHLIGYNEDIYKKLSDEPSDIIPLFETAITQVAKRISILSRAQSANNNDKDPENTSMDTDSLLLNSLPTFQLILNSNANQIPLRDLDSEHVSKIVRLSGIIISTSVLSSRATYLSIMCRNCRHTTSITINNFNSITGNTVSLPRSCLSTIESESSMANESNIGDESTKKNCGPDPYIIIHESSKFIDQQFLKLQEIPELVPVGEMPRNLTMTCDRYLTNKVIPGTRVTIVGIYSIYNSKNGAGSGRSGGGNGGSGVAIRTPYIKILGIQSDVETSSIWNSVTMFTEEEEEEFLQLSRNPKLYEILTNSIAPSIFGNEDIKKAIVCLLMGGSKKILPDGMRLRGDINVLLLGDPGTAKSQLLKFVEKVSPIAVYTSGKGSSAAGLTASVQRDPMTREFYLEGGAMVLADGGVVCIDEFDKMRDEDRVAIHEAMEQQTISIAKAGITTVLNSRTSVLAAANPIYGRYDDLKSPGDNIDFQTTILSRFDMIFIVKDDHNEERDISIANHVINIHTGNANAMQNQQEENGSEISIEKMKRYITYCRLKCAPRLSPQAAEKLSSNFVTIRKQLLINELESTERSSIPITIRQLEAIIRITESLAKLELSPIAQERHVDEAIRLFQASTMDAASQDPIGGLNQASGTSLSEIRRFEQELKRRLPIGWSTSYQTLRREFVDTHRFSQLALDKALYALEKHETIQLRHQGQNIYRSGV

B1: Dpb2, subunit of the CBP-tagged Pol epsilon complexes (deltacat and exo-) (natural protein, yeast (strains based on W303), UniProt P24482 1-689, looked up)
chain: MFGSGNVLPVKIQPPLLRPLAYRVLSRKYGLSIKSDGLSALAEFVGTNIGANWRQGPATIKFLEQFAAVWKQQERGLFIDQSGVKEVIQEMKEREKVEWSHEHPIQHEENILGRTDDDENNSDDEMPIAADSSLQNVSLSSPMRQPTERDEYKQPFKPESSKALDWRDYFKVINASQQQRFSYNPHKMQFIFVPNKKQNGLGGIAGFLPDIEDKVQMFLTRYYLTNDRVMRNENFQNSDMFNPLSSMVSLQNELSNTNRQQQSSSMSITPIKNLLGRDAQNFLLLGLLNKNFKGNWSLEDPSGSVEIDISQTIPTQGHYYVPGCMVLVEGIYYSVGNKFHVTSMTLPPGERREITLETIGNLDLLGIHGISNNNFIARLDKDLKIRLHLLEKELTDHKFVILGANLFLDDLKIMTALSKILQKLNDDPPTLLIWQGSFTSVPVFASMSSRNISSSTQFKNNFDALATLLSRFDNLTENTTMIFIPGPNDLWGSMVSLGASGTLPQDPIPSAFTKKINKVCKNVVWSSNPTRIAYLSQEIVIFRDDLSGRFKRHRLEFPFNESEDVYTENDNMMSKDTDIVPIDELVKEPDQLPQKVQETRKLVKTILDQGHLSPFLDSLRPISWDLDHTLTLCPIPSTMVLCDTTSAQFDLTYNGCKVINPGSFIHNRRARYMEYVPSSKKTIQEEIYI
notes: Dpb2, second largest subunit of yeast Pol epsilon; The complexes carry a CBP tag; The N-terminal domain is not seen in the deltacat map; also called NTD-Dpb2; CTD-Dpb2; source: yeast overexpression strain, galactose-induced; purified as part of Pol epsilon deltacat or exo- (calmodulin beads, Mono Q, gel filtration)
B2: Psf1, GINS subunit of the purified CMG (natural protein, yeast (strains based on W303))
chain: MYGDLGNKLVLEAKRTKQLYARSNQDVNLPMYHEDIIRNILKEVSNLRKNTEYLKEQQQLGMLDDKVAKCQYFVTLLCMERNKRCLLAYQRLRTDILDSMAWNNNGLDLMSSITFSQQDTNNLSHQEQEYLKEYCDLITDLKSGDLVDIDLSGSLVPPSDVFIDVRVLKDAGEIQTEYGVFNLIKDSQFFVRQSDVERLIQQGYLQKI
notes: Psf1, GINS subunit of yeast CMG; The Psf1 chain of m4; source: yeast overexpression strain yJCZ3, purified as part of CMG

How the values were obtained:
Test in all cases: cryo-EM structure; 250 nM CMG bound to a desthiobiotin-labelled pre-formed DNA fork on streptavidin beads with 2 mM ATPgammaS, then 80 nM Pol epsilon exo-, 30 °C, eluted with biotin; no crosslinker; 4.9 Å
Conditions in all cases: both partners purified
[1] = target: T2, Mcm3, subunit of the purified CMG (yeast (strains based on W303), UniProt P24279 1-971)
T2 construct: Mcm3, subunit of yeast CMG; The Mcm3 chain of m4; source: yeast overexpression strain yJCZ3, purified as part of CMG

[2] = target: T1, Mcm5, subunit of the purified CMG
[3] = target: B1

T2 sequence (P24279 whole entry): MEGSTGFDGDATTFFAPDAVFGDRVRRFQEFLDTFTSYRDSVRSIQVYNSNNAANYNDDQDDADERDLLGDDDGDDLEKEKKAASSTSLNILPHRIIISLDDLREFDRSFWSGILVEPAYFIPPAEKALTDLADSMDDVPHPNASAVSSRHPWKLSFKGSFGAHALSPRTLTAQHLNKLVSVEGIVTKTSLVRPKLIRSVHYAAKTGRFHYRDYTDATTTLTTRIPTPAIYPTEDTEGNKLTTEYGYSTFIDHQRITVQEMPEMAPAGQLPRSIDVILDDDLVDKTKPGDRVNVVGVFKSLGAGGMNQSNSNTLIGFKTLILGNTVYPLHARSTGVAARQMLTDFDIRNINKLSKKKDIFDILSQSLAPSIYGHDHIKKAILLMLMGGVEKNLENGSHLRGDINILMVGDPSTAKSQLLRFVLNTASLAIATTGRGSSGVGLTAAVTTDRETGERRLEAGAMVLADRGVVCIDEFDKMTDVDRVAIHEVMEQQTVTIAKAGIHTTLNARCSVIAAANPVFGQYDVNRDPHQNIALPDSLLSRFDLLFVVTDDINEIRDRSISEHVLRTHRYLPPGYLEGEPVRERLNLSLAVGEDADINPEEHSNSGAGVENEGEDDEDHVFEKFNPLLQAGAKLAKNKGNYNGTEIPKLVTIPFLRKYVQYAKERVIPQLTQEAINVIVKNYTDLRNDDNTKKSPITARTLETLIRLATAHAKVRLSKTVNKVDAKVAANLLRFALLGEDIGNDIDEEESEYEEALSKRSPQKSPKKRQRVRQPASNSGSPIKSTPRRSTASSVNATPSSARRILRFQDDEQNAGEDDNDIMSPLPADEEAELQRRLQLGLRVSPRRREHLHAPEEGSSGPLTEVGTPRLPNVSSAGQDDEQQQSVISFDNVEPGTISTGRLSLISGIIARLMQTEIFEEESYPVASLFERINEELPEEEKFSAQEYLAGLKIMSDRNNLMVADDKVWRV

Row | binding result [1] | binding result [2] | binding result [3] | Binder
1 | binds | binds |  | B1
2 |  |  | binds | B2
